From article PMC12611452

Target: PGDH3-mCherry (protease-free, released from PGDH3-mCherry-TEV-mVenus by TEV cleavage) (Arabidopsis thaliana) (UniProt Q9LT69)
Assay: mass photometry; TwoMP instrument, 5 nM protein in PBS, 60 s movies

stoichiometry N: 2
Substance: PGDH3-mCherry (protease-free, released from PGDH3-mCherry-TEV-mVenus by TEV cleavage) (from UniProt Q9LT69 39-588) (enzyme)
